# Measured values: US20220356229A1 (published 2022)
# Columns and labels:
# SARS-CoV Spike protein [1] = molecular target: SARS-CoV Spike protein (SARS-CoV, UniProt P59594 14-1190)
# [2] = molecular target: SARS-CoV-2 full length Spike protein, wild type, expressed on CHO cells (SARS-CoV-2, UniProt P0DTC2 14-1273)
# [3] = molecular target: SARS-CoV full length Spike protein, wild type, expressed on CHO cells (SARS-CoV, UniProt P59594 14-1255)
# SARS-CoV-2 Spike protein = SARS-CoV-2 Spike protein (SARS-CoV-2, UniProt P0DTC2 14-1208); assay: HT-SPR (Carterra LSA), mAb coupled to chip, Spike in solution, 1:1 Langmuir fit
# SARS-CoV Spike protein [4] = molecular target: SARS-CoV Spike protein (SARS-CoV, UniProt P59594 14-1190); remark: listed apart in the source
binder,measurement,setting,value
"anti-coronavirus antibody 556 (antibody, V domains shown) VH: QVQLVESGGGVVQPGRSLRLSCAASGFTFSSYAMHWVRQAPGKGLEWVAVISYDGSDKYYADSVKGRVTISRDNSKNTLYLQMNSLRVEDTAVFYCAKDDCSGGVCFPDYWGQGTLVTVSS VL: QSALTQPASVSGSPGQSITISCTGTSSDVGGYNYVSWYQQHPGKAPKLMIYEVSIRPSGVSNRFSGSKSGNTASLTISGLQAEDEAAYYCSSYTSSSTLVFGGGTKLTVL",binding signal (fold over isotype control),SARS-CoV Spike protein [1],1.09 fold over isotype control
"anti-SARS-CoV-2 antibody 970 (antibody, V domains shown) VH: EVQLVESGGGLVQPGGSLRLSCAASGFTFSSYWMSWVRQAPGKGLEWVANINKDGSEKYYVDSVKGRFTISRDNAKNSLYLQMNSLRAEDTAVYFCARDYRYFDWLLSQIDLEIDYFDYWGQGTLVTVSS VL: not shown","median fluorescence intensity, fold over isotype control",[2],20.6 fold over isotype
same,"median fluorescence intensity, fold over isotype control",[3],124 fold over isotype
"anti-SARS-CoV-2 antibody 1585 (antibody, V domains shown) VH: QVQLVESGGGVVQPGRSLRLSCAASGFTFSRFTLHWVRQAPGKGLEWVAVISYDGSNKYYADSVKGRFTISRDNSKSTLYLQMNSLRAEDTGVYYCARDPSTVTGYFDYWGQGTLVTVSS VL: SYVLTQPPSVSVAPGKTAKISCGGDSIGSKSVHWYQQKPGQAPVLVIYYDNDRPSGIPERFSGSNSGNTATLTISRVEAGDEADYYCQVWDIGVVFGGGTKLTVLG","median fluorescence intensity, fold over isotype control",[2],9.55 fold over isotype
same,"median fluorescence intensity, fold over isotype control",[3],19.9 fold over isotype
"mAb 1585 (antibody, V domains shown, human IgG1) VH: QVQLVESGGGVVQPGRSLRLSCAASGFTFSRFTLHWVRQAPGKGLEWVAVISYDGSNKYYADSVKGRFTISRDNSKSTLYLQMNSLRAEDTGVYYCARDPSTVTGYFDYWGQGTLVTVSS VL: SYVLTQPPSVSVAPGKTAKISCGGDSIGSKSVHWYQQKPGQAPVLVIYYDNDRPSGIPERFSGSNSGNTATLTISRVEAGDEADYYCQVWDIGVVFGGGTKLTVLG",Kd,SARS-CoV-2 Spike protein,≤ 17.1 pM
same,koff,SARS-CoV-2 Spike protein,≤ 1e-05 s⁻¹
same,kon,SARS-CoV-2 Spike protein,586000 M⁻¹ s⁻¹
"anti-coronavirus antibody 545 (antibody, V domains shown) VH: QVQLVQSGSELKKPGASVKVSCKASGYTFTSYAMNWVRQAPGQGLEWMGWINTNTGNPTYAQGFTGRFVFSLDTSVSTAYLQISVLKAEDTGVYYCARDHELPNSSSWFGHFEYWGQGTLVTVSS VL: SYELTQPPSVSVSPGQTARITCSGDALPKQYAYWYQQKAGQAPVLVIYKDSERRSGIPERFSGSSSGTTVTLTISGVQAEDEADYYCQSADSSGTSVVFGGGTKLTVL",binding signal (fold over isotype control),SARS-CoV Spike protein [1],1.13 fold over isotype control
"anti-SARS-CoV-2 antibody 1037 (antibody, V domains shown) VH: QITLKESGPTLVKPTQTLTLTCTFSGFSLSTSGVGVGWIRQPPGKALEWLALIYWDDDKRYSPSLKSRLTITKDTSKNQVVLTMTNMDPVDTATYYCAHHTITRINDYWGQGTLVTVSS VL: QSALTQPASVSGSPGQSITISCTATSSDVGAYNYVSWYQQHPGKAPKLMIYDVSKRPSGVSNRFSGSKSGNTASLTISGLQAEDEADYYCSSYTSSSTVFGGGTKLTVLG","median fluorescence intensity, fold over isotype control",[2],83 fold over isotype
same,"median fluorescence intensity, fold over isotype control",[3],23.1 fold over isotype
"mAb 1495 (antibody, V domains shown, human IgG1) VH: QVQLVESGGGVVQPGRSLRLSCTASGFTFSSYAMHWVRQAPGKGLEWVAVISYDGNNKYYGDSVKGRFTISRDNSKNTLYLQMNSLRAEDTAVYYCAKGADTPHYSGYHFLSVGYYFYGMDVWGQGTTVTVSS VL: DIQMTQSPSSLSASVGDRVTITCRASQSISYYLNWYQQKPGKAPQLLIYAASSLQSGVPSRFSGSRSGTDFTLTISSLQPEDFATYYCQQSYSTPFTFGPGTKVDIKR",Kd,SARS-CoV-2 Spike protein,97.2 pM
same,koff,SARS-CoV-2 Spike protein,1.01e-05 s⁻¹
same,kon,SARS-CoV-2 Spike protein,103000 M⁻¹ s⁻¹
"anti-coronavirus antibody 546 (antibody, V domains shown) VH: QVQLVESGGGVVQPGRSLRLSCAASGFTFSSYGMHWVRQAPGKGLEWVAVIWYDGSNKYYADSVKGRFTISRDNSKNTLYLQMNSLRAEDTAVYYCARNCGGDCVAGDGFDYWGQGTLVTVSS VL: DIQMTQSPSSLSASVGDRVTITCRASQSISSYLNWYQQKPGKAPNLLIYAASSLQSGVPSRFSGSGSGTDFTLTISSLQPEDFATYYCQQSYSALTWTFGQGTKVEIK",binding signal (fold over isotype control),SARS-CoV Spike protein [1],1.18 fold over isotype control
"anti-coronavirus antibody 563 (antibody, V domains shown) VH: QVQLVESGGGVVQPGRSLRLSCAASGFTFSSYAMHWVRQAPGKGLEWVAVISDDGSNKYYADSVKGRFTISRDNSKNTLYLQMNSLRAEDTAVYYCARDIVATIRRLFDYWGQGTLVTVSS VL: not shown",binding signal (fold over isotype control),SARS-CoV Spike protein [1],35.4 fold over isotype control
"antibody 485 (antibody, V domains shown) VH: QVQLQESGPGLVKPSGTLSLTCAVSGASISSSNWWSWVRQPPGKGLEWIGEIYHSGSTNYNPSLKSRVTISVDKSKNQFSLKLSSVTAADTAVYYCARRSYYGSGSYYPFDYWGQGTLVTVSS VL: QSALTQPASVSGSPGQSITISCTGTSSDVGSYNLVSWYQQHPGKAPKLMIYEGRKRPSGVSNRFSGSKSGNTASLTISGLQAEDEADYYCCSYAGSSTYVFGTGTKVTVL",bead binding signal (fold over isotype control),SARS-CoV Spike protein [4],1.12
"anti-coronavirus antibody 548 (antibody, V domains shown) VH: QVQLVESGGGVVQPGRSLRLSCAASGFTFSSYAMHWVRQAPGKGLEWVAVISYDGSNKYYADSVKGRFTISRDNSKNTLYLQMNNLRAEDTAVYYCAKSGSGSYLSAFDIWGQGTMVTVSS VL: not shown",binding signal (fold over isotype control),SARS-CoV Spike protein [1],18.1 fold over isotype control
"mAb 1444 (antibody, V domains shown, human IgG1) VH: QVQLVQSGAEVKKPGASVKVSCKASGYTFTAYYMHWVRQAPGQGLEWMGWINPNSDDTNYAQKFQGRVTMTRDTSISTAYMELSRLRSDDTAVYYCAREEGVFTIGDRYFDLWGRGTLVSVSS VL: QTVVTQEPSFSVSPGGTVTLTCGLSSGSVSTSYYPSWYQQTPGQAPRTLIYNTNTRSSGVPDRFSGSILGNKAALTITGAQADDESDYYCVLYMGSGIWVFGGGTKLTVLG",Kd,SARS-CoV-2 Spike protein,≤ 22.1 pM
same,koff,SARS-CoV-2 Spike protein,≤ 1e-05 s⁻¹
same,kon,SARS-CoV-2 Spike protein,453000 M⁻¹ s⁻¹
"mAb 1538 (antibody, V domains shown, human IgG1) VH: EVQLLESGGGLVQPGGSLRLSCAASGFTFSSYAMSWVRQAPGKGLEWVSGISDSGGSTYYADYVKGRFTISRDNSKDTLYLQMNSLRAEDTAVYYCAKDRGNEYALTHYYYYAMDVWGQGTTVTVSS VL: DIQMTQSPSSLSASVGDRVTITCRASQSISSYLNWYQQKPGKAPKLLIYAAYSLQSGVPSRFSGGGSGTDFTLTISSLQPEDFATYFCQQSYSTPITFGQGTRLEIKR",Kd,SARS-CoV-2 Spike protein,≤ 75.4 pM
same,koff,SARS-CoV-2 Spike protein,≤ 1e-05 s⁻¹
same,kon,SARS-CoV-2 Spike protein,133000 M⁻¹ s⁻¹
"anti-SARS-CoV-2 antibody 923 (antibody, V domains shown) VH: EVQLVESGGGVVRPGGSLRLSCAASGFIFDDYDMTWVRQAPGKGLEWVSGISWNGGNTGYADSVKGRFTISRDNAKNSLYLQMNSLRAEDTALYHCAVIMSPIPRYSGYDWAGGAFDIWGQGTMVTVSS VL: SSELTQDPAVSVALGQTVRITCQGDSLRSYYASWYQQKPGQVPILVIYDKNNRPSGIPDRFSGSSSGNTASLTITGAQAEDEADYYCNSRDSSGNAVVFGGGTKLTVLG","median fluorescence intensity, fold over isotype control",[2],59 fold over isotype
same,"median fluorescence intensity, fold over isotype control",[3],118 fold over isotype
"anti-coronavirus antibody 560 (antibody, V domains shown) VH: EVQLVESGGGLVQPGGSLRLSCAASGFTISSNYMSWVRQAPGKGLEWVSVIYSGGSTYYADSVKGRFTISRDNSKNTLYLQMNSLRAEDTAVYYCAREEGEWEKDYYGMDVWGQGTTVTVSS VL: not shown",binding signal (fold over isotype control),SARS-CoV Spike protein [1],1.14 fold over isotype control
"anti-coronavirus antibody 544 (antibody, V domains shown) VH: QVQLQQWGAGLLKPSETLSLTCAVYGGSFSGYYWSWIRQPPGKGLEWIGEINHSGSTNYNPSLKSRVTISVDTSKNQFSLKLSSVTAADTAVYYCARGFKWFGELLFGAQGTLVTVSS VL: not shown",binding signal (fold over isotype control),SARS-CoV Spike protein [1],1.05 fold over isotype control
